Test results reported in the supplement of paper PMC9170038.

System: K4 kissing-loop RNA reporter
Experiment: apparent KD of K4 kissing-loop reporter; higher = weaker reporter binding
Conditions: Eterna round: R107; input ligand: arginine 13.2 mM
Experimental: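 RNA-MaP round R107: designed RNA switches with theophylline, tryptophan, arginine or FMN aptamers are transcribed on-chip within common flanks. They are titrated with a labelled K4 kissing-loop RNA reporter in RNA-MaP buffer (100 mM Tris pH 7.5, 80 mM KCl, 4 mM MgCl2), without ligand or with the indicated ligand. Median apparent KD per design.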
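Note: bound reporter read as fluorescence of individual clusters on recovered sequencing chips by microscopy, with normalized cluster intensities fitted with a binding model.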

Sequence	apparent KD of K4 kissing-loop reporter
UAUAUAUGAUGUGAUACCAGUGAAAAGCCAGUGAUGUUGGAGGAGCUGGUAUAUAAAUAAGACCCUUGGCAGCACAAUCACGUAU [#01 K4 Theophylline B Exclusion]	202 nM
UUUUUGGUUUAGAGUGAUGUUCCUUGUAAUCGAGGACCGGUACGGCCGCCACUCGAUUAGAAAAGAAAAGAAAAGAGUGAUGUUU [BDazzled - #2 SS Tryptophan A]	229 nM
AUUAUAAAGUCGGCCGCCACUGAGAGUAGUGAUGUUACUCUAUUCCUUUAGAUAUUAUAUUUUAUCAGGACCGGGACAUCAGAUU [JR_ExcTryptoB_Sub019]	341 nM
GCUAUGGUAGGAAGGAGCGCUUGCUCGGUCAUAUGAGUGAUGUUCGAGACUGAGCAUUUAUAGCAGGUAGGUCGCCUACUAUAGC [Arginine B K4 9]	206 nM
CGUUUAUAGCAGGAUACCAGUACCCAUAAAGUACGUUAAUAGUAGAGUGAUGUUCUAAAGUACCCUUGGCAGCUUCCCGUGAGUG [ExTheophylB.T]	129 nM
GUUGUAUACUGAAGGAGCGAGUAGUGGAAACAUAAACUCAUUGCGAGUGAUGUUCGCGGUACUCAGGUAGGUCGCGGUAAUCGUA [Exclusion Arginine B Gf 11]	328 nM
UGUCAUUGGUCGGCCGCCACUUCAAGGUCAAAGACCAGAGUGAUGUUCUUGCACAAAGUGCUUAGAAGGACCGGGACCGAUGACU [TrypBS 13 #SwitchBubble #K4Middle]	467 nM
GUUACGCAUGGAAGGAGCGCUCUCAGGCUUAAUAACACAGUGAUGUUGUGAAUUUGCCUAAAGCAGGUAGGUCGCCAUGUGUAAC [Ex Arginine B K4 9]	400 nM
AGAGUCGGCUGUGAUACCAGUCGUAUUACAACAUGUCGCAGUGAUGUUGCGAGAUAGGAUGACCCUUGGCAGCACUCAGUACGAU [Same State Theophylline B GF 8]	277 nM
AAAACUAUCAGAAGGAGCGUGGAAUAUACAUCUAUAUUUAAUACGAGUGAUGUUCGUAAUUCACAGGUAGGUCGCUGAUCAAUAA [whbob_Ex_Arginine_B_2th153]	320 nM
AAGUGUGUGGCGGCCGCCACUAGAAUCCAGUGAUGUUGGAGUAAUCAAAUAAAUAAUAAUAAACAUAGGACCGGGCCAUAUAGAA [Same State - Tryptophan B (Freestyle 2)]	138 nM
AGCGGCCAGUCGGCCGCCACUCCAGGCAGUGAUGUUGCGAAGUUUCUACUAGAGUGAUGUUCUAAGAGGACCGGGACUGACGUAA [Exclusion Tryptophan B Gf 9]	218 nM
AUGCUGUCGGCGUUAAAGUAGUAAUGUGAUACCAGAAAUGCUGUGUUCCCUUGGCAGCACAUUCUUACAGACAGUGAUGUUGUCU [theeternabot_exclusion_KL_Theo_A_8]	315 nM
GCUAGCAUGGCAGGAUAUAGCAAUAGGAGUGAUGUUCCUUGGUAGGUGAGUGAUGUUCACUACCAACUAGAAGGGCCAUGCUAGC	111 nM
UGACUGGACUGAAGGAGCGCGCGAGACAAAGUCUCGAACUCCUAGUGAUGUUAGGAAAUAACGCAGGUAGGUCGCAGUCUAGUCU [ArgBS 10 #SwitchBubble #StaticStem #DoubleMagnet]	190 nM
GUGAGGAUCCGAAGGAGCGUCCGCAAUCCAGUGAUGUUGGGUGUUGGUUAUAUUUAACGAGGACAGGUAGGUCGCGGAUUUUCAA [Same State Arginie B GF 22]	126 nM

Sequence	apparent KD of K4 kissing-loop reporter
CGUAGCAGAUGAAGGAGCGGCUACCUGUAUCAGGCAACUGCCUGAGUGAUGUUCAGGUAUAGCCAGGUAGGUCGCAUCUGCUACG [Arg B Ex t9b]	206 nM
AGGUGGGACGUAGGAUAUCCCUAAUGAUUUACUUCCUGGUUGCUACGCUUCCAGUGAUGUUGGAAGGGAGAAGGACGGGCGAGUU [Riatbive]	217 nM
AGACUUCACCGAAGGAGCGACGUGGCCUAGUGAUGUUAGGCACGAGAGAAAUCUCGUGUACGUCAGGUAGGUCGCGGUGAAGUCA [Omei KL Arginine B SS C v7]	648 nM
UAAAAUAAAUAAUAGAGAGCGUUACUCGAAGGAGCGACGAAUUCGUCAGGUAGGUCGCGAGUGAUGUUCGCAAAUACGCUCUCAU [AK2 Exc Arginine A]	655 nM
AAUGUACAGGGAAGGAGCGUCGUCCAGUGAUGUUGGAGUUAAAUACCAGUGAUGUUGGUUAGGCAGGUAGGUCGCCCUAAAGUAG [#09 K4 Arginine B Exclusion]	71.4 nM
UUAAUAAUUCAAGGAUAUGUUUUUUUUUUCGAGUGAUGUUCGGAAUUAAUAAAUUUAAAAGAUUAUACAGAAGGUGAUAAAUAGU [Cynwulf-mod#1]	91 nM
CCAUCGCUAUUCGAUACCAGCUACUUAGUGAUGUUAAGUUAAAAUAAAUUGUAGAUUAAAAGCCCUUGGCAGCGAAUAGUGAUGG [Theophylline B K4 19]	134 nM
UAAAUAAUAAAACGAGUGAUGUUCGACGAUACCAGCCUCGAUAGAGGCCCUUGGCAGCGUAAAUGAUCACAAAGCCAAGGUAUAA [#01 K4 Theophylline A Exclusion]	183 nM
GGUAUCCAGUACCAUUGCGUUAAAACAGAAGGAGCGAGAAUAGACUCAGGUAGGUCGCUGUUUAUAGUCGAGUGAUGUUCGAAUC [Same State Arginine A GF 14]	281 nM
AAAAUAAAUCAGUGAUGUUGGUAUCUGGAUACCAGCGAUAAUAAUCGCCCUUGGCAGCCAUGGACGUACAAAAUAAGUACGUCCU [MatMod 18 - Jieux - Same State - Theophylline A]	154 nM
AAAAUUAAGGCCGAAUAAACUUAUUUCAUACGAGGACCGGUACGGCCGCCACUCGAGUCAAGUGAUGUUUGACUAUCUAUUAUUA [JR_ExcTryptoA_Sub009]	87.1 nM
UGUACCGAGUCAGGAUAUGGCGUCGAAAGACGAAUCCUAGUGAUGUUAGUGAUCUGCGAAAGCAGUCCAGAAGGGACUUGGUACU [FmnBS 26 U50]	321 nM
GCAGUGAUGUUGCGGAUGUACAGUGGCGUGCGAGGACCGGUACGGCCGCCACUCGUACAGAGCCAGCUAAUACAUCGAUAGGUGA [whbob_SS_Tryp_A_m6]	177 nM
CGUUUAUAGCAGGAUACCAGUACGGAUAAGGUACGUUAAUAGUAGAGUGAUGUUCUAAAGUACCCUUGGCAGCUUAGAGUGAGUG [#20 K4 Theophylline B Exclusion]	147 nM
CAUAUAUAUAGAGGAUAUCGAGUAGAGUGAUGUUCUGCCUGGGUUGGCUCGCAAGGGCCUUCCCAGCGAGAAGGCUAUAUAUAUG [harrys-mod#1ED5.33]	399 nM
CAUACCCAGUGAUGUUGGGUCGGUACCGAUACCAGUCGUACAGCCGACCCUUGGCAGCGGUAGCAUUGCCCGGCGUCGGCUUGUG [theeternabot_exclusion_KL_Theo_A_17]	581 nM

Same assay, conditions: Eterna round: R107; input ligand: none

Sequence	apparent KD of K4 kissing-loop reporter
UGUCAUUGGUCUGAUACCAGAAGAAUCUGGAGUGAUGUUCCAAGUCGAUCAAAAGAUCGCUUCCCUUGGCAGCAGACCGAUGACU [TheoBS 24 #SwitchBubble 13 #StaticStem]	300 nM
UUAAGGGUCCGAGGAUAUCUCCCAGUGAUGUUGGGCGAUACGGCCCUUAAGACUAAUGGUUGAAGGAGAGAAGGCGGCUCCCGAU [Edmaisle]	128 nM
GCGGCCCAGCCGGAUACCAGUGACCCGCUGGGAACCGCGGGCCCAGAGUGAUGUUCGGGACACCCUUGGCAGCCGCCUGGGACGC [#2 Same State - Theophylline B Attempt #17 (HarryS)]	546 nM
CUGAGCCUGACGAAAGUCAGGCUCUGCGAGCGAGGACCGGUACGGCCGCCACUCGGUGCAGUGAUGUUGCAUGGCCGCAAGGCCG [#2 Exclusion - Tryptophan A Attempt #18 (HarryS)]	207 nM
AGCCGAAAGGCGAGUGCUGUCACUCCGGAAGGAGCGCUCGAAAGAGCAGGUAGGUCGCCGGAGUGAUGUUCCGGUGCAGCACUCA [Omei KL Arginine A Exc B v5]	1250 nM
AAGUGAUGUUGUAGUGAUGUUGUGAUGUUGCAGGAUAUAUAGUGAUGUAGAAGGGUAUGUACAGAUUUUUUUUUUGAGUGAUGUU [ffdcmullin]	73.8 nM
GGAUCCACCAGUGAUGUUGGAGAAAACUCUAAGGAUAUGACGAAAGUCAGAAGGUGGUAGACUGGUCAAAGUCCGGUCGGAUCCA [FmnA10 U30+U66]	577 nM
GUGCGGCUAGUGAUGUUGGUUGCGUGGGAAGGAGCGCAGAAACAUGCAGGUAGGUCGCCCACACCUCUGAAAGGAGGUUAAUUCA [Diusdige]	133 nM
UGGAGUUGACGAAAAGUCAACUCCCGAGAAGGAGCGGACGAAAGUCCAGGUAGGUCGCUCGCUACCAGUGAUGUUGGUACGUAAA	116 nM
AACAAGGGAUGUCAGUGAUGUUGUACGUCGCGAGGACCGGUACGGCCGCCACUCGUAAUACACAGAUGAGGGUUCUUUCUCUGAU [theeternabot_sameState_KL_Trp_A_49]	268 nM
UAUAUAUGAUGUGAUACCAGUGAAAAGCCAGUGAUGUUGGAGGAGCUGGUAUAUAAAUAAGACCCUUGGCAGCACAAUCACGUAU [#01 K4 Theophylline B Exclusion]	212 nM
UUUUUGGUUUAGAGUGAUGUUCCUUGUAAUCGAGGACCGGUACGGCCGCCACUCGAUUAGAAAAGAAAAGAAAAGAGUGAUGUUU [BDazzled - #2 SS Tryptophan A]	299 nM
AUUAUAAAGUCGGCCGCCACUGAGAGUAGUGAUGUUACUCUAUUCCUUUAGAUAUUAUAUUUUAUCAGGACCGGGACAUCAGAUU [JR_ExcTryptoB_Sub019]	317 nM
GCUAUGGUAGGAAGGAGCGCUUGCUCGGUCAUAUGAGUGAUGUUCGAGACUGAGCAUUUAUAGCAGGUAGGUCGCCUACUAUAGC [Arginine B K4 9]	182 nM
CGUUUAUAGCAGGAUACCAGUACCCAUAAAGUACGUUAAUAGUAGAGUGAUGUUCUAAAGUACCCUUGGCAGCUUCCCGUGAGUG [ExTheophylB.T]	103 nM
GUUGUAUACUGAAGGAGCGAGUAGUGGAAACAUAAACUCAUUGCGAGUGAUGUUCGCGGUACUCAGGUAGGUCGCGGUAAUCGUA [Exclusion Arginine B Gf 11]	800 nM
UGUCAUUGGUCGGCCGCCACUUCAAGGUCAAAGACCAGAGUGAUGUUCUUGCACAAAGUGCUUAGAAGGACCGGGACCGAUGACU [TrypBS 13 #SwitchBubble #K4Middle]	625 nM
GUUACGCAUGGAAGGAGCGCUCUCAGGCUUAAUAACACAGUGAUGUUGUGAAUUUGCCUAAAGCAGGUAGGUCGCCAUGUGUAAC [Ex Arginine B K4 9]	440 nM
AGAGUCGGCUGUGAUACCAGUCGUAUUACAACAUGUCGCAGUGAUGUUGCGAGAUAGGAUGACCCUUGGCAGCACUCAGUACGAU [Same State Theophylline B GF 8]	421 nM
AAAACUAUCAGAAGGAGCGUGGAAUAUACAUCUAUAUUUAAUACGAGUGAUGUUCGUAAUUCACAGGUAGGUCGCUGAUCAAUAA [whbob_Ex_Arginine_B_2th153]	278 nM
AAGUGUGUGGCGGCCGCCACUAGAAUCCAGUGAUGUUGGAGUAAUCAAAUAAAUAAUAAUAAACAUAGGACCGGGCCAUAUAGAA [Same State - Tryptophan B (Freestyle 2)]	147 nM
